To fix the notation:
B1: HDV Ribozyme (parent)
chain: GGCCGGCAUGGUCCCAGCCUCCUCGCUGGCGCCGGCUGGGCAACAUUCCGAGGGGACCGUCCCCUCGGUAAUGGCGAAUGGGACCCA

Variants of B1 are the subject of this data set. Description: self-cleavage, relative activity (ratio to wild type); higher = more cleavage; co-transcriptional.
As to GGCCGGCAUGGUCCCGGCCUCCUCGCUGGCGCCGGCUGGGCAACAUUCCGAGGGGACCGUCCCCUCGGUAAUGGCGAUUGGGACCCA [A16G A78U], the self-cleavage turned out to be 0.0692. On to GGCCGGCAUGGUCCCGGCCUCCUCGCUGGCGCCGGCUGGGCAACAUUCCGAGGGGACAGUCCCCUCGGUAAUGGCGAAUGGGACCCA [A16G C58A], for which the self-cleavage is 0.762. In the case of GGCCGGCAUGGUCCCGGCCUCCUCGCUGGCGCCGGCUGGGCAACAUUCCGAGGGGACGGUCCCCUCGGUAAUGGCGAAUGGGACCCA [A16G C58G] it was 0.776; in that of GGCCGGCAUGGUCCCGGCCUCCUCGCUGGCGCCGGCUGGGCAACAUUCCGAGGGGACCGUCACCUCGGUAAUGGCGAAUGGGACCCA [A16G C62A], 0.877; in that of GGCCGGCAUGGUCCCGGCCUCCUCGCUGGCGCCGGCUGGGCAACAUUCCGAGGGGACCGUCGCCUCGGUAAUGGCGAAUGGGACCCA [A16G C62G], 0.369. As for GGCCGGCAUGGUCCCGGCCUCCUCGCUGGCGCCGUCUGGGCAACAUUCCGAGGGGACCGUCCCCUCGGUAAUGGCGAAUGGGACCCA [A16G G35U], the self-cleavage worked out at 0.375.

Consider GGCCGGCAUGGUCCCGGCCUCCUCGCUGGCGCCGCCUGGGCAACAUUCCGAGGGGACCGUCCCCUCGGUAAUGGCGAAUGGGACCCA [A16G G35C], for which the self-cleavage worked out at 0.138. For GGCCGGCAUGGUCCCGGCCUCCUCCCUGGCGCCGGCUGGGCAACAUUCCGAGGGGACCGUCCCCUCGGUAAUGGCGAAUGGGACCCA [A16G G25C] the value was 0.166; for GGCCGGCAUGGUCCCGGCCUCCUCGCUGGCGCCGGCUGGGCAACAUUCCGAGGGGACCGUCCCCUCGGUAGUGGCGAAUGGGACCCA [A16G A71G], 0.748. In the case of GGCCGGCAUGGUCCCGGCCUCCUCGCUGGCGCCGGCUGGUCAACAUUCCGAGGGGACCGUCCCCUCGGUAAUGGCGAAUGGGACCCA [A16G G40U] it was 0.719. For GGCCGGCAUGGUCCCGGCCUCCUCGCUGGCGCCGGCUGGACAACAUUCCGAGGGGACCGUCCCCUCGGUAAUGGCGAAUGGGACCCA [A16G G40A] the value was 1.13; for GGCCGGCAUGGUCCCGGCCUCCUCGCUGGCGCCGGCUGGGCAACAUUCCGAGGUGACCGUCCCCUCGGUAAUGGCGAAUGGGACCCA [A16G G54U], 0.72; for GGCCGGCAUGGUCCCGGCCUCCUCGCUGGCGCCGGCUGGGCAACAUUCCGAGGGGACCGUCCCCUCGGUAAUGGCGUAUGGGACCCA [A16G A77U], 0.266.

On to GGCCGGCAUGGUCCCGGUCUCCUCGCUGGCGCCGGCUGGGCAACAUUCCGAGGGGACCGUCCCCUCGGUAAUGGCGAAUGGGACCCA [A16G C18U], for which the self-cleavage came to 0.554. Take GGCCGGCAUGGUCCCGGACUCCUCGCUGGCGCCGGCUGGGCAACAUUCCGAGGGGACCGUCCCCUCGGUAAUGGCGAAUGGGACCCA [A16G C18A]: the self-cleavage is 0.161.

With GGCCGGCAUGGUCCCGGCCUCCUCGCUCGCGCCGGCUGGGCAACAUUCCGAGGGGACCGUCCCCUCGGUAAUGGCGAAUGGGACCCA [A16G G28C], the self-cleavage stood at 0.115. For GGCCGGCAUGGUCCCGGCCUCCUCGCUGGCGCCGGCUGGGCAACAUUCCGAGGGGACCGUCCUCUCGGUAAUGGCGAAUGGGACCCA [A16G C63U] the value was 0.997. In the case of GGCCGGCAUGGUCCCGGCCUCCUCGCUGGCGCCGGCUGGGCAACAUUGCGAGGGGACCGUCCCCUCGGUAAUGGCGAAUGGGACCCA [A16G C48G] it was 0.914; in that of GGCCGGCAUGGUCCCGGCCUCCUCGCUGGCGCCGGCUGGGCAACAUUUCGAGGGGACCGUCCCCUCGGUAAUGGCGAAUGGGACCCA [A16G C48U], 1.42; in that of GGCCGGCAUGGUCCCGGCCUCCUCGCUGGCGCCGGCUGGGCAACAUUACGAGGGGACCGUCCCCUCGGUAAUGGCGAAUGGGACCCA [A16G C48A], 0.802. In the case of GGCCGGCAUGGUCCCGGCCUCCUCGCUGGCGCCGGCUGAGCAACAUUCCGAGGGGACCGUCCCCUCGGUAAUGGCGAAUGGGACCCA [A16G G39A] it was 0.404; in that of GGCCGGCAUGGUCCCGGCCUCCUCGCUGGCGCCGGCUGGGCAACAUUCCGAGGGGACCGUCCCCUGGGUAAUGGCGAAUGGGACCCA [A16G C66G], 0.743; in that of GGCCGGCAUGGUCCCGGCCUCCUCGCUGGCGCCGGCUGGGCAACAUUCCGAGGGGACCGUCCCCUAGGUAAUGGCGAAUGGGACCCA [A16G C66A], 0.88. With GGCCGGCAUGGUCCCGGCUUCCUCGCUGGCGCCGGCUGGGCAACAUUCCGAGGGGACCGUCCCCUCGGUAAUGGCGAAUGGGACCCA [A16G C19U], the self-cleavage stood at 0.178. For GGCCGGCAUGGUCCCGGCGUCCUCGCUGGCGCCGGCUGGGCAACAUUCCGAGGGGACCGUCCCCUCGGUAAUGGCGAAUGGGACCCA [A16G C19G] the value was 0.151; for GGCCGGCAUGGUCCCGGCAUCCUCGCUGGCGCCGGCUGGGCAACAUUCCGAGGGGACCGUCCCCUCGGUAAUGGCGAAUGGGACCCA [A16G C19A], 0.237. For GGCCGGCAUGGUCCCGGCCUCCUCGCUGGCGCCCGCUGGGCAACAUUCCGAGGGGACCGUCCCCUCGGUAAUGGCGAAUGGGACCCA [A16G G34C] the value was 0.0536; for GGCCGGCAUGGUCCCGGCCUCCUCGCUGGCGCCAGCUGGGCAACAUUCCGAGGGGACCGUCCCCUCGGUAAUGGCGAAUGGGACCCA [A16G G34A], 0.17; for GGCCGGCAUGGUCCCGGCCUCCUCGCUGGCGCCUGCUGGGCAACAUUCCGAGGGGACCGUCCCCUCGGUAAUGGCGAAUGGGACCCA [A16G G34U], 0.324.

With GGCCGGCAUGGUCCCGGCCUCCUCGCUGGCGCCGGCUGGGCAACAUUCCGAGGGGACCGUCCCGUCGGUAAUGGCGAAUGGGACCCA [A16G C64G], the self-cleavage was found to be 0.807. Consider GGCCGGCAUGGUCCCGGCCUCCUCGCUGGCGCCGGGUGGGCAACAUUCCGAGGGGACCGUCCCCUCGGUAAUGGCGAAUGGGACCCA [A16G C36G], for which the self-cleavage stood at 0. For GGCCGGCAUGGUCCCGGCCUCCUCGCUGGCGCCGGUUGGGCAACAUUCCGAGGGGACCGUCCCCUCGGUAAUGGCGAAUGGGACCCA [A16G C36U] the value was 0.655.
